Source: patent US20140287419A1, “Compositions Having Dicamba Decarboxylase Activity and Methods of Use” (priority 2013, published 2014)

B1: SEQ ID NO:89: amidohydrolase, Erwinia billingiae Eb661 (protein, listed as Erwinia billingiae)
chain: MATNRRDFLKNATAVMAGSTVFAGSSHFASAAAVEPAAVQPPRRIIALEEHFMLPEFVGYLHETQQNLRNGLVDKVVTPLSDFGKGRLEIMDKNGVDFAVLSLSGPGVQAEPDRVKAVRLARYANDKLATEMQKNPRRYGGFAHLAMQDPLAAANELERCVKQLHMQGGMINGETDGLYLDDRRYDVFWERVEALNVPIYIHPGNPPDYPHMFAGHPEMWGPVWSWAVETCSHALRLIFSGTFDRYPGARVILGHMGETLPIQLWRLDSRYQIANQTFAIKHPPSWYAKKNITITTSGVCNDAALRCALDSMGSENVMFSIDYPFESTEIAVNWLKTANITEQERNAVAWGNATSILRLGA
B2: SEQ ID NO:4: o-pyrocatechuate decarboxylase, Lactobacillus buchneri NRRL B-30929 (protein, listed as Lactobacillus buchneri)
chain: MAKVITLEEHFSSQKLGQKMAEVLPKRPIGNVSPKMQDYMQRSLPPEAELEDVTGSRIQWMDQHQISMQILSYGNQNPQNSDPKFAVELTKLANDELAKAVAKAPDRFRAFASLPVSHPTDAAAELKRGVEELGFKGAMLVRPTSQAHPFFDDPFYLPIFEAAANLNVPVYLHPSFPDSQIIDYYYSNGPWDDKVSGILGTAGYGWHTDVGIQTVRLLLSGVFEKYPNLKLISGHWGEFASFALERMDQVMYPETNLSEPISKIYRDHVYVTPSGILTEPQLKFVKDEVGIEHLLYSIDYPYIKPENSGSFIESSPLTDEEKELFAHGNAEKLLQL
B3: SEQ ID NO:92: amidohydrolase 2, Chitinophaga pinensis DSM 2588 (protein, listed as Chitinophaga pinensis)
chain: MARIVTLEEHVSFPEMTALLPEEILKNRKQSGAALQMQEKLADITGERLTSMKAAGISMQVLSVENTDVYLLPDSLAPAFAAKYNDLLADKISSHSDAFAAFAMLPMTVPEAAADELERAVKTHGFCGAMIKGLINGVFLDAPKFAPVFACAEKLGVPLYIHPGIPPKEVIDAYYSNVGDTKGPNEAIACYGWGWHSETAIHILRLLAAGIFDKYPQLNIIIGHMGEMLPMMWERSNRVFQPGNNGKNQRTLIETFRKQLYITTSGIFTQPPLQIAIDTIGIDNILFSIDYPFSSNQMGIDFLTKAALPAEQLAKMAHGNADRILKF
B4: SEQ ID NO:58: amidohydrolase 2, Mycobacterium colombiense CECT 3035 (protein)
chain: MARVIALEEHYATTEFLRGPGTWLASRPGIVEPAGDLGDGRIAAMDQAGVDLAVLSLAAPGVEQLDPDDAVRLARDCNDQLAAAVRRYPDRLAGFATVPTSAPDRAADELERAVRGLGFPGAVINGHSRGRYLDDPFFEPVLARAAELQAPIYLHPTIPPAGVIESSYAGFAEPVTFALATVGWGWHINTATHALRMILGGVFDRHPSLQMIIGHMGEATSFMLPRFDATLKPELTGLNHPVSSYLRENFHYTFANFNDHATYANLVAQVGIERVAFSADYPFGSMVDARAFLDGLPLSDDERAAISHRNAEKLLGL
modifications: Mycobacterium colombiense
B5: SEQ ID NO:19: 2,3-dihydroxybenzoic acid decarboxylase, putative, Talaromyces marneffei ATCC 18224 (protein, listed as Talaromyces marneffei)
chain: MATPIITLEEHYISSAIRDASETDHYAVFPSQIISKLNTLSTERLQDLDNGHVSLQVISHGPGAQPPYLCQAANDELASAISANPTRFAGFALLPIAEPQLAVQELERCITQHKFVGALIDNHTNGQFYDDQKFWPVFEKAQELDAPIYVHPSYPDEESGVAAHYRGNYDDRIAAALGAYGWGWHSDTALSILRLFAAGLFDTYPNIKIIIGHMGEMLPFQLERVIGIASRFGRSRGLREVWTQNIWVTTSGMFALAPLACLLQTMPIERVLYSVDYPFSANEKGFAFLEEIKKSGLIKEGEDWERFLYKNAQELLKVNV
B6: SEQ ID NO:88: o-pyrocatechuate decarboxylase, Starkeya novella DSM 506 (protein, listed as Starkeya novella)
chain: MARKIALEEHFTTPELAGKYVARPTQSDALFADIERRLADFDELRLEMMDRAEIDLMVLSVTTPGVQGVRDTGEAIRLARGANDFLAREVQKRPSRYAGFAHLAMQDAEAAATELERAVRELGFRGALINGQTNGHYLDEDQYAPFWERVQELDVPVYLHPGNMADSPAMFAHRPELGGPIWAWTAETAAHALRLVFGGTFTRFPGAKVILGHMGETLPFLLWRLDSRREFDLGEKLAPDALPSAIIKRNIAVTTSGVCDPAPLVAALQALSDDNVMFSVDYPYEDPQLASKFIETAPIGEETRAKVCHGNAERLLGL
B7: SEQ ID NO:5: possible o-pyrocatechuate decarboxylase, Staphylococcus aureus subsp. aureus MN8 (protein, listed as Staphylococcus aureus)
chain: MAQNNMEANQMKSITFEEHYVIEDIQKETMNAISADPKGVPMKVMLEGLEKKTGFTNADELSHHDERIQFMNNQDVQIQVLSYGNGSPSNLVGQKAIELCQKANDQLANYIAQYPNRFVGFATLPINEPEAAAREFERCINDLGFKGALIMGRAQDGFLDQDKYDIIFKTAENLGVPIYLHPAPVNSDIYQSYYKGNYPEVTAATFACFGYGWHIDVGIHAIHLVLSGIFDRYPKLNMIIGHWGEFIPFFLERMDEALFAEHLNHPVSYYFKNNFYITPSGMLTKPQFDLVKKEAGIDRILYAADYPYIEPEKLGVFLDELGLTDEEKEKISYTNGAKLLGLSSNN
B8: SEQ ID NO:16: possible o-pyrocatechuate decarboxylase, Staphylococcus aureus subsp. aureus TCH60 (protein, listed as Staphylococcus aureus)
chain: MAQNNMEANQMKSITFEEHYVIEDIQKETMNAISADPKGVPMKVMLEGLEKKTGFTNADELSHHDERIQFMNNQDVQIQVLSYGNGSPSNLVGQKAIELCQKANDQLANYIAQYPNRFVGFATLPINEPETAAREFERCINDLGFKGALIMGRAQDGFLDQDKYDIIFKTAENLGVPIYLHPAPVNSDIYQSYYKGNYPEVTAATFACFGYGWHIDVGIHAIHLVLSGIFDRYPKLNMIIGHWGEFIPFFLERMDEALFAEHLNHPVSYYFKNNFYITPSGMLTKPQFDLVKKEAGIDRILYAADYPYIEPEKLGVFLDELGLTDEEKEKISYTNGAKLLGLSSNN
B9: SEQ ID NO:79: hypothetical protein PTT_18638, Pyrenophora teres f. teres 0-1 (protein)
chain: MATTTTPSTLIATLESHLTPTLAFTSPTTSPTQPALHLIPPTTLTKLRNLGPGRVKDMHMLGHSRQIISHIPVAAPPQICSRFNDAIHAATMTNTAKFSVLAVLPTDGMEAAKELARCVSKYRFVGGVIGLNRGLRINGEGWEELWGLAERLRIPIMFREMWPLAFEIVDYQHHLPYSALGPILTQLHTSHTSSPLPLVRLYLSSVFDHYPSLRLVLAHPGSLPSLVPRIESLINSIPATDKPKRSFLDVWQHNIYLTTADAQDMSSLRALLEQIPVDRVLYASNYPFEERGNELMNELRESEFLTNIEWERVAWVNAETLFNLKEAGTKEARQLTTIPSSRS
modifications: Pyrenophora teres
B10: SEQ ID NO:21: reversible 2,6-dihydroxybenzoic acid decarboxylase, Agrobacterium tumefaciens (protein, listed as Agrobacterium tumefaciens)
chain: MAQGKVALEEHFAIPETLQDSAGFVPGDYWKELQHRLLDIQDTRLKLMDAHGIETMILSLNAPAVQAIPDRKKAIEIARRANDVLAEECARRPDRFLAFAALPLQDPDAATQELQRCVNDLGFVGALVNGFSQEGDGQTPLYYDLPQYRPFWGEVEKLDVPFYLHPRNPLPQDSRIYDGHPWLLGPTWAFAQETAVHALRLMASGLFDAHPRLNIILGHMGEGLPYMMWRIDHRNAWVKLPPRYPAKRRFVDYFNENFHITTSGNFRTQTLIDAILEIGADRILFSTDWPFENIDHASDWFNATTIAEADRVKIGRTNARRLFKLDGR
B11: SEQ ID NO:87: amidohydrolase, Novosphingobium sp. PP1Y (protein, listed as Novosphingobium sp.)
chain: MASDIATAADLQTGGRQGYLRIATEEAFATRDQIDVYLRMVRDGTADRGMTSLWGFYAQSPSARATQIIERLLDLGEQRLADMDAAGIDKAVLALTSPGVQPLLDMEEARRIAGNANDRLAERCAAHPDRFIGMTAVAPQDPQWSAREILRGATQLGFKGVQINSHTQGRYLDEPFFDPIFRALGDVGQPLYIHPGTPPDSMIGPLLDAGLDGAIYGFGVETGMHLLRLITAGIFDRYPDLQIMVGHMGEALPYWLYRLDYMHQAGIRSQRYERMRPLKRTIAGYFRSNVLVTCSGMAWEPAIQFARQVMGEDRVMYAMDYPYQYEADEVRALDVMDLSPESKRKFFQTNAERWFDL
B12: SEQ ID NO:81: 2-amino-3-carboxymuconate-6-semialdehyde decarboxylase, Verticillium dahliae VdLs.17 (protein, listed as Verticillium dahliae)
chain: MAASTKPKVVDIHTHMYPPSYIDILTSRTAIPVVRTFPQAADPRLILLDAEQQALDAALQDPTAKPPGRPLTSHYASLDQKIHFMDTHSIDISVVSLANPWLDFIEPKEAAATARSVNDEFEAMCASQPGRLFFFAALPLTAPLPALLEAVRHVAELEHCRGVILGTSGLGSGLDDPELVPVLEAVAAAALTVFLHPHYGLPNDVWGPRASAEYGHVLPLALGFPMETTIAVARMYLAGVFDRVPALRMLLAHSGGTLPFLAGRIESCILHDGQLVAEGKVGAARRTIWDVLREQVYLDAVIYSEIGLKAAIAASGGADRLMFGTDHPFFPPLGTDEQAKKESRINAGGSRPMITGNAMINGHGGLCNHITQSDYQDVVL

assay: 14C assay with IPTG-induced recombinant E. coli cells (14CO2 capture from [14C]-carboxyl-labeled dicamba); settings: E. coli cell assay, 108 sequences tested

Question: With B1 as the molecule, how does the “decarboxylation activity of dicamba” value read?
Answer: Its value is “showed decarboxylation activity of dicamba”.

Question: For B2, which “decarboxylation activity of dicamba” value is on record?
Answer: Its value is “showed decarboxylation activity of dicamba”.

Question: For B3, which “decarboxylation activity of dicamba” value is on record?
Answer: Its value is “showed decarboxylation activity of dicamba”.

Question: With B4 as the molecule, how does the “decarboxylation activity of dicamba” value read?
Answer: Its value is “showed decarboxylation activity of dicamba”.

Question: With B5 as the molecule, how does the “decarboxylation activity of dicamba” value read?
Answer: Its value is “showed decarboxylation activity of dicamba”.

Question: Which “decarboxylation activity of dicamba” value does the source give for B6 here?
Answer: Its value is “showed decarboxylation activity of dicamba”.

Question: For B7, which “decarboxylation activity of dicamba” value is on record?
Answer: Its value is “showed decarboxylation activity of dicamba”.

Question: For B8, which “decarboxylation activity of dicamba” value is on record?
Answer: Its value is “showed decarboxylation activity of dicamba”.

Question: With B9 as the molecule, how does the “decarboxylation activity of dicamba” value read?
Answer: The value was “showed decarboxylation activity of dicamba”.

Question: With B10 as the molecule, how does the “decarboxylation activity of dicamba” value read?
Answer: The value was “showed decarboxylation activity of dicamba”.

Question: With B11 as the molecule, how does the “decarboxylation activity of dicamba” value read?
Answer: Its value is “showed decarboxylation activity of dicamba”.

Question: With B12 as the molecule, how does the “decarboxylation activity of dicamba” value read?
Answer: The value was “showed decarboxylation activity of dicamba”.
